Reference: article doi:10.64898/2025.12.30.697104
Like-named read-outs stand apart in the source and are kept apart here.

Columns and labels:
[1] = molecular target: Trichoplusia ni (Tni) beta-tubulin (Trichoplusia ni (endogenous in Tni cells)); test: cryo-EM structure
[2] = molecular target: Trichoplusia ni (Tni) beta-tubulin (Trichoplusia ni (endogenous in Tni cells)); test: cryo-EM structure; remark: listed apart in the source

Trichoplusia ni (Tni) beta-tubulin (natural protein)
stoichiometry N [1]: 2 | stoichiometry N [2]: 2
